From paper PMC3432171

Molecular target: T1, VDRm-NT (vitamin D receptor, flexible loop deleted, no His-tag) (rat, UniProt P13053 1-423, del165-211)
T1 sequence: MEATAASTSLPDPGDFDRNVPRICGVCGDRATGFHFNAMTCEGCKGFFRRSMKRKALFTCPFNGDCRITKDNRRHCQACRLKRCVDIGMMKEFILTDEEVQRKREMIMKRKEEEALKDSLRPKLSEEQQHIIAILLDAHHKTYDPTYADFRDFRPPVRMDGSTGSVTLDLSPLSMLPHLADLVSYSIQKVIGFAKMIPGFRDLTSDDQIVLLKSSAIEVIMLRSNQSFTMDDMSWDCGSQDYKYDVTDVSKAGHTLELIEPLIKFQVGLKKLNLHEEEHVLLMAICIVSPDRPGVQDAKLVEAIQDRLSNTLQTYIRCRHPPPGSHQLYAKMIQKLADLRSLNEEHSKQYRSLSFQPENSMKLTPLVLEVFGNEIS
Test: EMSA

B1: VDRE duplex (dsDNA)
DNA 1: CACGGTTCACGAGGTTCACAC
DNA 2: GTGTGAACCTCGTGAACCGTG
Question: Does B1 bind?
Answer: Result: binds
